Data: article PMC9173649 (2022)

What was measured:
[1] = biological target: T1, C1q purified from human serum (human, UniProt P02745 23-245; P02746 28-253; P02747 29-245); assay: BLI; 2:1 heterogeneous ligand model, kd1 (first site)
[2] = biological target: T1, C1q purified from human serum; assay: BLI; 2:1 heterogeneous ligand model, KD1 (first site)
[3] = biological target: T1, C1q purified from human serum; assay: BLI; 2:1 heterogeneous ligand model, kd2 (second site)
[4] = biological target: T1, C1q purified from human serum; assay: BLI; 2:1 heterogeneous ligand model, KD2 (second site)

T1 sequence (P02745 23-245, chain 1 of 3): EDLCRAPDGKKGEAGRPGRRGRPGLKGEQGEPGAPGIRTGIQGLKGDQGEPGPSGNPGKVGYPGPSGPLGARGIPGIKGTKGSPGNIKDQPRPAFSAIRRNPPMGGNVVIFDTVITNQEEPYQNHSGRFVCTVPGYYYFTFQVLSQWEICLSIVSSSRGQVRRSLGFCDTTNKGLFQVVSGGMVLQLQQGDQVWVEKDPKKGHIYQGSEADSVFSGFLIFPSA
T1 sequence (P02746 28-253, chain 2 of 3): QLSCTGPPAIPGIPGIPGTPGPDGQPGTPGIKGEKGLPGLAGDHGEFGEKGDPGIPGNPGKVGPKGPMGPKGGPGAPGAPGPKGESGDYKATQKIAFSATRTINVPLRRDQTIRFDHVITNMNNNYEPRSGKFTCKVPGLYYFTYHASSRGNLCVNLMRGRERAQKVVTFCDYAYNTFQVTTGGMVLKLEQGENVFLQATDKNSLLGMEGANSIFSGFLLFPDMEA
T1 sequence (P02747 29-245, chain 3 of 3): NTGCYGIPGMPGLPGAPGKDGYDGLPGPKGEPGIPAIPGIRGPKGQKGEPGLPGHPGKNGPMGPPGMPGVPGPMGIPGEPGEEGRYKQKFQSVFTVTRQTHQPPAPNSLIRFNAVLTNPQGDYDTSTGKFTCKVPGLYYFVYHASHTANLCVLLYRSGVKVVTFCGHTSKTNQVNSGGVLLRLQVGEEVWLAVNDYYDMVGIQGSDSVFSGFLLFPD

B1: C1r2C1s2 catalytic tetramer (complex)
chain 1: SIPIPQKLFGEVTSPLFPKPYPNNFETTTVITVPTGYRVKLVFQQFDLEPSEGCFYDYVKISADKKSLGRFCGQLGSPLGNPPGKKEFMSQGNKMLLTFHTDFSNEENGTIMFYKGFLAYYQAVDLDECASRSKSGEEDPQPQCQHLCHNYVGGYFCSCRPGYELQEDTHSCQAECSSELYTEASGYISSLEYPRSYPPDLRCNYSIRVERGLTLHLKFLEPFDIDDHQQVHCPYDQLQIYANGKNIGEFCGKQRPPDLDTSSNAVDLLFFTDESGDSRGWKLRYTTEIIKCPQPKTLDEFTIIQNLQPQYQFRDYFIATCKQGYQLIEGNQVLHSFTAVCQDDGTWHRAMPRCKIKDCGQPRNLPNGDFRYTTTMGVNTYKARIQYYCHEPYYKMQTRAGSRESEQGVYTCTAQGIWKNEQKGEKIPRCLPVCGKPVNPVEQRQRIIGGQKAKMGNFPWQVFTNIHGRGGGALLGDRWILTAAHTLYPKEHEAQSNASLDVFLGHTNVEELMKLGNHPIRRVSVHPDYRQDESYNFEGDIALLELENSVTLGPNLLPICLPDNDTFYDLGLMGYVSGFGVMEEKIAHDLRFVRLPVANPQACENWLRGKNRMDVFSQNMFCAGHPSLKQDACQGDSGGVFAVRDPNTDRWVATGIVSWGIGCSRGYGFYTKVLNYVDWIKKEMEEED
chain 2: EPTMYGEILSPNYPQAYPSEVEKSWDIEVPEGYGIHLYFTHLDIELSENCAYDSVQIISGDTEEGRLCGQRSSNNPHSPIVEEFQVPYNKLQVIFKSDFSNEERFTGFAAYYVATDINECTDFVDVPCSHFCNNFIGGYFCSCPPEYFLHDDMKNCGVNCSGDVFTALIGEIASPNYPKPYPENSRCEYQIRLEKGFQVVVTLRREDFDVEAADSAGNCLDSLVFVAGDRQFGPYCGHGFPGPLNIETKSNALDIIFQTDLTGQKKGWKLRYHGDPMPCPKEDTPNSVWEPAKAKYVFRDVVQITCLDGFEVVEGRVGATSFYSTCQSNGKWSNSKLKCQPVDCGIPESIENGKVEDPESTLFGSVIRYTCEEPYYYMENGGGGEYHCAGNGSWVNEVLGPELPKCVPVCGVPREPFEEKQRIIGGSDADIKNFPWQVFFDNPWAGGALINEYWVLTAAHVVEGNREPTMYVGSTSVQTSRLAKSKMLTPEHVFIHPGWKLLEVPEGRTNFDNDIALVRLKDPVKMGPTVSPICLPGTSSDYNLMDGDLGLISGWGRTEKRDRAVRLKAARLPVAPLRKCKEVKVEKPTADAEAYVFTPNMICAGGEKGMDSCKGDSGGAFAVQDPNDKTKFYAAGLVSWGPQCGTYGLYTRVKNYVDWIMKTMQENSTPRED
koff [1]: 0.000402 s⁻¹ | Kd [2]: 10 nM | koff [3]: 0.00928 s⁻¹ | Kd [4]: 4.33 nM
